The numbers were not newly measured in PMC7866199, which cites them from elsewhere.

The target in data set [1] is NPT2A C-terminal 22 aa (Homo sapiens) (UniProt Q06495).
Data set [2] deals with GRK6A C-terminal PDZ ligand (Homo sapiens) (UniProt P43250).
Sequence of UniProt P43250 (P43250 555-576): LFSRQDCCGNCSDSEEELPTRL

Sequence of UniProt Q06495 (Q06495 618-639): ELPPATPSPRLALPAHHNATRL

By Kd is commonly meant the constant that tells how readily two partners part at equilibrium. As for NHERF1 (from UniProt O14745), the dissociation constant (Kd) in data set [1] and in data set [2] was 4 µM throughout.
